According to US20120100141A1 (GlaxoSmithKline, published 2012):

Assays:
Test in all cases: melanophore functional bioassay, transfected cells (data not shown)
Mouse NPY5R = target: T1, Mouse NPY5R (mouse, UniProt O70342 1-466)
T1 construct: whole, on cells; also called NPY5R (mouse)
T1 sequence (looked up): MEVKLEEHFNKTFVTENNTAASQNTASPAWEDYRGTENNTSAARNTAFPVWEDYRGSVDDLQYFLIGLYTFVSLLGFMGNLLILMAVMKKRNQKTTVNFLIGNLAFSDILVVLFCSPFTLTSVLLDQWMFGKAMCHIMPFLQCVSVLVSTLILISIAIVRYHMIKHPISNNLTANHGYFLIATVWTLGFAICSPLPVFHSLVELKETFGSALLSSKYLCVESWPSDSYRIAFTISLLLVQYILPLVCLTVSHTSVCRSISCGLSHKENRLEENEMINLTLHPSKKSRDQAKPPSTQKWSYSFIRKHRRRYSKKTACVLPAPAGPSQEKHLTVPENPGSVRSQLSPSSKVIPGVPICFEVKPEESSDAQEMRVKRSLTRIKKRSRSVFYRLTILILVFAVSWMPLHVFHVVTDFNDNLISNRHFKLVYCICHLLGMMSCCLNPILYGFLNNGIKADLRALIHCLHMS
Description: (§1) For assaying purposes cells were washed, trypsinized and resuspended in 0.7×EPG PBS at a concentration of 15×10⁶ cells per ml. 800 μl of cells were gently mixed with 20-40 μg of cDNA and incubated on ice for 20 minutes. […] After 2 hours they were placed in a sealed container in the incubator overnight (25° C., 0% CO2). The following day media was aspirated and 25 μl MAB (Melanophore Assay Buffer) containing 1% DMSO and 10 nM melatonin was added to each well. Cells were incubated for one hour and basal transmittance was measured on a SLT Spectra plate reader at 620 nm. Next, a dilution series (12 point series using 3 fold dilution intervals in MAB) containing 25 μl of a 2× concentration peptides and standards were added directly to each well. Standards included melatonin 10 nM, MSH 200 nM and MAB and were used to establish assay system Minimum, Maximum, and basal response levels, respectively. Following addition of peptides and standards, plates were incubated for 1 hour and transmittance measured as before. Data was analyzed using Robosage (version 7.3.2) by calculating (1−Tf/Ti) where Ti is initial baseline read, and Tf is the response read.

Human NPY4R = target: T2, Human NPY4R (human, UniProt P50391 1-375)
T2 construct: whole, on cells; also called NPY4R (human)
Description: as §1

Mouse NPY4R = target: T3, Mouse NPY4R (mouse, UniProt Q61041 1-375)
T3 construct: whole, on cells; also called NPY4R (mouse)
Description: as §1

Mouse NPY2R = target: T4, Mouse NPY2R (mouse, UniProt P97295 1-381)
T4 construct: whole, on cells; also called NPY2R (mouse)
T4 sequence (looked up): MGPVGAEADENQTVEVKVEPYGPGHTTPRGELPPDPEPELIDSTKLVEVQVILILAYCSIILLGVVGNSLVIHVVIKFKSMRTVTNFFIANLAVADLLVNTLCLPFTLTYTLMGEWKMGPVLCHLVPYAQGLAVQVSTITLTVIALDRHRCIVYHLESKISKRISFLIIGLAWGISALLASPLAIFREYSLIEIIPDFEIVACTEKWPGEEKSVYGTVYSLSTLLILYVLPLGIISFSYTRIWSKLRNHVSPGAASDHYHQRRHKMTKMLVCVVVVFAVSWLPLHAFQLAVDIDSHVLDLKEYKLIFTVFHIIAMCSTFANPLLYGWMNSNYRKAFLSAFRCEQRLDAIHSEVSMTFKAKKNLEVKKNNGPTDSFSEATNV
Description: as §1

Human NPY5R = target: T5, Human NPY5R (human, UniProt Q15761 1-445)
T5 construct: whole, on cells; also called NPY5R (human)
T5 sequence (looked up): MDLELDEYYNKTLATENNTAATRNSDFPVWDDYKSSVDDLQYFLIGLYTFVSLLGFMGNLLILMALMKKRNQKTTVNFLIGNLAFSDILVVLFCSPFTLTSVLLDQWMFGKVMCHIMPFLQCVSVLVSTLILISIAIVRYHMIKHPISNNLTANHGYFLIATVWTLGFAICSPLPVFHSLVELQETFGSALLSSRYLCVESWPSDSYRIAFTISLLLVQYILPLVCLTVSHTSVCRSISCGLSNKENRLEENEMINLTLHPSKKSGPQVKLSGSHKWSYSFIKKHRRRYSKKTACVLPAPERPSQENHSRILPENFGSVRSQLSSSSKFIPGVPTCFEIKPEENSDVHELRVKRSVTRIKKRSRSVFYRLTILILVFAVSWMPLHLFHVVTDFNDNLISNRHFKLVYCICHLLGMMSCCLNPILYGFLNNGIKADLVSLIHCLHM
Description: as §1

Mouse NPY1R = target: T6, Mouse NPY1R (mouse, UniProt Q04573 1-382)
T6 construct: whole, on cells; also called NPY1R (mouse)
T6 sequence (looked up): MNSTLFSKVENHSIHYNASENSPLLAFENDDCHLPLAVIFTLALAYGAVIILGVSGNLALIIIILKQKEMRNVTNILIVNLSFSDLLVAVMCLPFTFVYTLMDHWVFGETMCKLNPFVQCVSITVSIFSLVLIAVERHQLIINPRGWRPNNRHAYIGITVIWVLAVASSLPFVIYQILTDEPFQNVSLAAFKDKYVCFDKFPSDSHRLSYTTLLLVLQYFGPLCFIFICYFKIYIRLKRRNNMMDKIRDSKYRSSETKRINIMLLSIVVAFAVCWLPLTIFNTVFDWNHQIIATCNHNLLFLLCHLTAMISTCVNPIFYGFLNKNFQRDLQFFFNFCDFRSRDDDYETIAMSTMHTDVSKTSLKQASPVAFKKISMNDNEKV
Description: as §1

Human NPY2R = target: T7, Human NPY2R (human, UniProt P49146 1-381)
T7 construct: whole, on cells; also called NPY2R (human)
T7 sequence (looked up): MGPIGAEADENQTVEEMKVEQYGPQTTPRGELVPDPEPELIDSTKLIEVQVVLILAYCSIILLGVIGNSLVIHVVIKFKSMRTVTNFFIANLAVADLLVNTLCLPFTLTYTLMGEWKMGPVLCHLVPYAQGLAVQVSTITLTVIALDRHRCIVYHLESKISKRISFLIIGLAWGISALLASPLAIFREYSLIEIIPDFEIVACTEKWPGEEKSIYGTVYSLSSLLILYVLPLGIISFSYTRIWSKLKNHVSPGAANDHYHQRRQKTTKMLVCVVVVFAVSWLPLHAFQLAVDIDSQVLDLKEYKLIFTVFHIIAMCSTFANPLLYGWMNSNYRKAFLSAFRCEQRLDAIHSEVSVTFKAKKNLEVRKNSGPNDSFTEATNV
Description: as §1

Human NPY1R = target: T8, Human NPY1R (human, UniProt P25929 1-384)
T8 construct: whole, on cells; also called NPY1R (human)
T8 sequence (looked up): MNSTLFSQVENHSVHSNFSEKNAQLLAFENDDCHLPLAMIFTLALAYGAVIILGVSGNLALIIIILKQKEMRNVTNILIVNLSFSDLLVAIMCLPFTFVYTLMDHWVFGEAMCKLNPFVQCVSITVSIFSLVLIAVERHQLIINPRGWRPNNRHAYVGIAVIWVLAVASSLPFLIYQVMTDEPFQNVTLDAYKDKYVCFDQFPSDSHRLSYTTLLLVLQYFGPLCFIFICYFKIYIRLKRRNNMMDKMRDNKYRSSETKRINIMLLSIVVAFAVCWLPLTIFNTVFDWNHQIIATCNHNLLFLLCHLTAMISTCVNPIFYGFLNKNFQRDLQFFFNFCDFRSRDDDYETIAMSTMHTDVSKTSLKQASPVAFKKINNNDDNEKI
Description: as §1

T2 sequence (P50391 whole entry): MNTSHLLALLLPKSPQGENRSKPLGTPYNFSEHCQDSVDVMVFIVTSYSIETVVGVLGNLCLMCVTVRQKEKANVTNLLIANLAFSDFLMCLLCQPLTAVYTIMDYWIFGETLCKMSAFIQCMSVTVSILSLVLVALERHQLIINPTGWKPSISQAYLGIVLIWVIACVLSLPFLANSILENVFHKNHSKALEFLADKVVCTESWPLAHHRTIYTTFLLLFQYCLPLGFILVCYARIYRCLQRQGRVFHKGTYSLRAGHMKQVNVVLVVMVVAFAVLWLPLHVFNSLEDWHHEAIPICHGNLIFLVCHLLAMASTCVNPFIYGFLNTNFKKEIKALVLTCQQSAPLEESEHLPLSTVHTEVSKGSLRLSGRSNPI
T3 sequence (Q61041 whole entry): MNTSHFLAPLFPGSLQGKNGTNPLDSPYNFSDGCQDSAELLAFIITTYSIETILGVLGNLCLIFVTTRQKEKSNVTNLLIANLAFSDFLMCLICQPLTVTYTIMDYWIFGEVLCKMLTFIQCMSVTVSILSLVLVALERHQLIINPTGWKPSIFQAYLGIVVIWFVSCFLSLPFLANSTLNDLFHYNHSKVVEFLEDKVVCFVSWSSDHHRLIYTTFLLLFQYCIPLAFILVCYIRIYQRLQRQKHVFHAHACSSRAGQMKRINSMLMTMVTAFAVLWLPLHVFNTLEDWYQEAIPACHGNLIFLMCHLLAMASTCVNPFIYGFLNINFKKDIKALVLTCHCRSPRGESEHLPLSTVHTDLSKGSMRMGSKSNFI

- binding result (Mouse NPY5R): binds
- binding result (Human NPY4R): binds
- binding result (Mouse NPY4R): binds
- binding result (Mouse NPY2R): binds
- binding result (Human NPY5R): binds
- binding result (Mouse NPY1R): binds
- binding result (Human NPY2R): binds
- binding result (Human NPY1R): binds
B1: PYY (3-36) DOM7h-14-10 (R108C) AlbudAb peptide conjugate DMS7605 (other)
chain: DIQMTQSPSSLSASVGDRVTITCRASQWIGSQLSWYQQKPGKAPKLLIMWRSSLQSGVPSRFSGSGSGTDFTLTISSLQPEDFATYYCAQGLRHPKTFGQGTKVEIKC
peptide: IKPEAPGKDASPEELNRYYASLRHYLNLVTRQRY
modifications: C-terminal amide; lysine at position 10 derivatised with the 4 repeat PEG linker to the dAb cysteine; free C-terminal cysteine (R108C) coupled through maleimide to a 4 repeat PEG linker that is attached to the lysine at position 10 of the PYY peptide
notes: Chemical conjugate, not a genetic fusion; The dAb was made in E. coli, the peptide and PEG linker by chemical synthesis; also called DMS7167:PYY3-36; PYY(3-36) AlbudAb
